Data published in the nanobody polyreactivity screen of Harvey et al. (2022).

Experiment: yeast display, Sf9 membrane polyspecificity reagent, FACS + sequencing; frameworks hold sequencing errors
In short: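 Galactose induction of a Saccharomyces cerevisiae BJ5465 synthetic nanobody display library ran 36–48 hours. The cells were then stained for 1 hour at 4 °C with 10% biotinylated, detergent-solubilized Sf9 membrane reagent, pulled down on streptavidin microbeads and FACS-sorted into low and high (top ~1%) gates on expression and reagent-binding fluorescence. Labels for polyreactivity follow the gate of origin.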

Sequence | polyreactivity (PSR sort gate)
QVQLVESGGGLVQAGGSLRLSCAASGITFFVYAMGWYRQAPGKERELVAAISSTASTNYADSVKGRFTISRDNAKYTVYLQMNSRKPEDTAVYYCNAGVWSLGTYWQFDYWGQGTQVTVSS | high polyreactivity
QVQLVESGGGLVQAGGRLRLTCAASGSTLPLNAMGWYRQAPGKEREFVASITYSGGNTYYADSVKGRFTISRDNAKNTVYLQMNSLKPEDTAVYYCAVDEYGIWVGWVPYATFGMNYWGQGTQVTVSS | high polyreactivity
QVQLVESGGGIVQAGGSLRLSCAASGFTFWVYAMGWSRQAPGNEWQLVAAISARGGSTYYADSVKVRFTISRDNAKNTVYLQMNSLKPVDTEVYYCAAEPSGKRSKFYYWGHGTQVTVSS | high polyreactivity
QVQLVESGGGLVQAGGSLRLSCAASGRTFYFYAMGWYRQAPGKERELVAAITSRVGRTYYADSVKGRFTISRDTAKNTVYLQMNSLKPEDTAVYDCAAEGVYRMGYWGQGTQVTVSS | high polyreactivity
QVQLVESGGGLVQAGGSLRLSCAASVSTFGGYAMGWYRQAPGKERELDAAITYSGGSTYYADSVKGRFTISRDNAKNTVYLQMNSLKPEDTAVYYCNADDDDALPWWWPYVLDVDYWGQGTQVTVSS | low polyreactivity
QVQLVESGGGLVQAGGSLRLSCAASGRTFRYYAMGWYRPAPGKERELVAAITSGGSTYYADSVKGRFTISRDNAKNTVYLQMNSLKPEDTAVYYCNKDFTRTWTRHGDDYWGQGTQVTVSS | high polyreactivity
QVQLVESGGGLVQAGGSLRLSCAASGSNFDYYAMGWYRQAPGKERELVAAISSTDGSTFYADSVKGRFTISRDNAKNTVYLQMNSLKPEDTAVYYCAVVGYYYPWPNGYDYWGQGTQVTVSS | low polyreactivity
QVHLVESGGGLVQAGGSLRLSCAASGYIFDIYAMGWYRQAPGKERELVAVITRSGGGTYYADSVKGRFTISRDNAKNTVYLQMNSLKPEDTAVYYCAAESYVYGGSDYDYWGQGTQVTVSS | low polyreactivity
QVQLVESGGGLVQAGGSLRLSCAASGSIFDPYAMGWYRQAPGKETELDAAITASGSSTYYADSVKGRFTISRDNAKNTVYLQMNSLKPEDTAVYYCAADRANWEYLLSWLGYDYWGQGTQVTVSS | low polyreactivity
QVQLVESGGGLVQAGGSLRLSCAASGSTFFPYAMGWYRQAPGKERELVATINYSGGGTYYADSVKGRFTISRDNAKNTVYLQMNSLKPEDTAVYYCAKTLARFDRGYYWGQGTQVTVSS | low polyreactivity
QVQLEESGGGLVQAGGSLRLSCAASGFTFYRYAMGWYRQAPGKERELVAAITWSGGSTYYADSVKGRFTISRDNAKNTVYLQMNSLKPEDTGVYYCNAAAYYPTNYGGYLFEYWGQGTQVTVSS | low polyreactivity
QVQLEESAGGLVQAGGSLRLICADSARILRQYARGWYRQAPGKERELVAAITSSGGSTYYADSVKGRFTISRDNEKNTVYLQMNSMKPEDTAVYYCNARLRGAKYDYWGQGTQVSVSS | high polyreactivity
QVQLVESGGGLVQAGGSLRLSCAASGFTFKYYTMGWYRQAPGKERELVAVISRTGSTNYADSVKGRFTISRDNAKNTVYLQMNSLKPEDTAVYYFITARGKYAFFDVDYWGQGTQVTVTS | high polyreactivity
QVQLVESGGGLVQAGGSLRLSCAASGRTFEGYTMGWYRQAPGKERELVAAITWRGTSTYYADSVKGRFTISRDNAKNTVYLQMNSLKPEDTAVYYCNKVGWYHNYYYWGQGTQVTVSS | high polyreactivity
QVQLVESGGGLVQAGGSLRLSCAASGRIFGDNAMGWYRQAPGKEREFVATINGSGGSTYYADSVKGRFTISRDNAKNTVYLQMNSLKPEDTAVYYCFVQQNYGYDYWGQGTQVTVSS | low polyreactivity
QVQLVESGGGLVQAGGSLRLSCAASGSIFVPYAMGWYRQAPWKERELVAAISRGGDTNYADSVKGRFTISRDKAKNTVYLQMNSLIPEDTAVSYCNRARHQYSRWHGGYYYWGQCTQVTVSS | low polyreactivity
QVQLVESGGGLVQAGGSLRLSCAASGSTQFGYAIGWYRQAPGKEREFVAAITSGGNTYYADSVKGRFTISLDNAKYTVYLQMNSLKPEDTAVFYCNKRYRSFAARLRGYDYWGQGTQVTVSS | high polyreactivity
QVQLVESGGGLVQAGGSLRLSCAASGSTFFLYAMGWYRQAPGKERELVAAISSGGSTNYADSVKGRFTISRDNAKNTVYLQMNSLKPEDTAVYYCAADAVRSHDYWGQGTQVTVSS | low polyreactivity
QVQLVESGGGLVQAGGSLRLSCAASGRIFYLYTMGWYRQAPGKERELVAASTRAGRTYYADSVKGRFTISRDNAKNTVYLQMNSLKPEDTAVYYCAAAFLSRVQGYDSWGQGTQVTVSS | high polyreactivity
QVRLVESGGGLVQAGGSLRLSCAASGRTFTHNVMGWYRQAPGKERELVAGISSTGGSTYYADSVKVRFTISRDNAKNTVYLQMNSRKPEDPAVYYCNADYASYYRYSRPLEMNYWGQGTQVTVSS | low polyreactivity
QVQLVESGGGLVQAGGSLRLRCAASGRIFLPYAMGWYRQAPGKERELVAGISSRGSTKYADSVKGRFTISRDNAKNTVYLQMNTLKPEETAVYYCNKVKKSDKFNNFSNDYWGQGTQVTVSS | high polyreactivity
QVQLVESGGGLVQAGGSLRLSCAASGSIFKGYAMGWYRQAPGKERELVAAISSSGGSTYYADSVKGRFTISRDNAKNTVYLQMNSLKPEDTAVYYCNTDRYYTYDYWGQGTQVTVSS | low polyreactivity

Sequence | polyreactivity (PSR sort gate)
QVQLVESGGGLVQAGGSLRLRCAASGRTFYYNVMGWYRQAPGKERELVATITSGASTNYADSVKGRFTISRDNAKNTVYLQMNSLKPEDTAVYYCNTEYYPRWYGPYSYYDFDSWGQGTEVTVSS | low polyreactivity
QVQLVVSGGGLVQAGGSIRLSCAASGRIFFYNAMGWYRQAPGKERELVAGISSGGGSTYYADSVKGRFTISRDNAKNTVYLQLNSLKPDDPAVYYCNKVVYSYSVGVGEYDYWGQGTQVTVSS | high polyreactivity
QVQLVESGGGLVQAGGSLRLSCAASGIIIYDYAMGWYRHAPGKERELVAAISRSGGSTYYADSVKGRFTISRDNAKYTVYLQMNSLKPDDTAVYYCNADEVVWGYNYWGQGTQVTVSS | low polyreactivity
QVQLVEYVELLVQAVGILSLSCAASGLTIYYYIMGWYLHAPRKEREFLAAISNSGCRPYYADSVNGRFTISRDNAKNTDYLQMNSLIPEDTPVYYCAAQSRYGGKFLYWGQGTQVTVSS | high polyreactivity
QVQLVESGGGLVQAGGSLRLSCAASGRTFVTYGMGWYRQAPGKERQLVAAISKRGSRTYYADSVKGRFTISRDNAKNTVYLQMNSLKPEDTAVYYCNAETYRTTYDYWGQGTQVTVSS | high polyreactivity
QVQLVESGGGLVQAGGSLRLSCAASGSIFLDYAMGWYRQAPGKERELVAAITSGGSTYYADSVKGRFTISRDNAKNTVYLQMNSLKPEDTAVYYCNDEYPQYKAGFYGYDYWGQGTQVTVSS | low polyreactivity
QVQLVESGGGLVQAGGSLRLSCAASGFTFQENAMGWYRQAPGKERELVAAISYGGGSTYYADSVKGRFTISRDNAKNTVYLQMNSLKPEDTAVYYCAADGGSAYAWYFAELYGYWGQGTQVTVSS | low polyreactivity
QVQLVESGGGLVQAGGSLRLSCAASGYTLRPNGMGWYRQAPGKERELVAAISSGGSTYYADSVKGRFTISRDNAKNTVYLQMISLKPEDTAVYYCAAEYWYDYWGQGTQVTVSS | low polyreactivity
QVQLVETGRGLVQAGGSLRLSCAASGSTFGSYAMGWYRPAPGKEREFVATISRSGGRTYYAASVKGRFTISRDNAKNTVYFQMNSLKPEDTAVYYCATDRRYWIGYDYWGQGTQVTVSS | high polyreactivity
QVQLVESGGCLVQAGGSLRLSGAASGRIFGRNAMGWYRQAPGKERELVAAINSGVSTYYADSVKGRFTIARDNAKNTVYLQMNSLKPEDTAVYYSATDTDYYLLYLYYYWGQGTQVTVSS | low polyreactivity
QVQLVDSGGGLVKAGCSLRLSCAASGRIFNSYAMGLYRQAPGKETELVAAITWSGDRTNYADSVKGRFTISRDNANNTVYVQMNSLKPEDTAVYYCAADRVRSVRYGYWGKGTQVTVSS | low polyreactivity
QVQLVVSGGGLVQAGGSLRLSCAASGSIFRYYAMGWFRQAPGQERELVASITRGGTSTYYADSVKGRFTISRDNAKNTVYLQMNSLKPDDTAVYYCAAKGYLSRYDNWGLGTQVTVSS | high polyreactivity
QVQHVESGGGIVQAGGSLRLSCAASGHIFFYYTMGWYRQAPGKERELVAGITIGGSTNYADSVKGRFTISRDNAKNTVYLQMNSLKPEDTAVYYCNVVKYVYIYSYWEYYYWGQGTQVTVSS | low polyreactivity
QVQLVESGGGLVQAGGSLRLSCASSGFIFRHYAMGWYRQAPGKARELVAVINWSGSSTYYADSVKGRFTISRDNAKNTVYLQMNSLKPEDTAVYYCAVRSLRVDKYGYWGQGTQVTVSS | high polyreactivity
QVQLVESGGGLVQAGGSLRLSCAASGFIFTRYAMGWYRQAPGKERELVAVITSSGGTYYADSVKGRFTISRDNAKNSVYLQMNSLKPEDTAVYYCNADFYRVAYLRRYSHFDYWGQGTQVTVSS | high polyreactivity
QVQLVESGGGLVQAGGSLRLSCAASGSTFRRNAMGWYRQAPGKERELVAAISRSGDSTYYADSVKGRFTISRDYAKNTVYLQMNSLKPEDNAVYYCIAHQSRQVGYWGQGTQVTVSS | high polyreactivity
QVQLVESGGGLVQAGGSLRLSCAASGIIFAYNAMGWYRQAPGKERELVAAISVIAGTTYYADSVKGRFTISRDNAKNTVYLQMNSLKPEDTAVYYCAVDSVQYGGGYERLHELYYWGQGTQVTVSS | low polyreactivity
QVQLVESGGGLVQAGGSLRLSCAASGSTFRYNAMGWYRQAPGKERELVASISYNGGNTYYADSVKGRFTISRDNSKNTVYLQMNSLKPEDTAVYYCAAVPIKRGLILGDRGYNYWGQGTQVTVSS | high polyreactivity
QVQLVESGGGLDQAGGSLRLSCAASGSISGYNAMGWYRQAPGKERELVASIRYTGARSYYADSGKGRFTISRDNAKNTVYLQMNSLKPEDTAVYYCAADSAYDVTSYGYWGQGTQVTVSS | low polyreactivity
QVQLVESGGGLVQAGGSLRLTCAASGSIFFDYGMGWYRQAPGKERELVATITRGTGSTYYADSVKGRFTISRDNAKNTVSLQMNSLKPEDTAVYYCAESYSYYNSYDYWGQGTQVTVSS | high polyreactivity
QVQLVESGGGLVQAGGSLRLSCAASGIIFWLYTMGWYRQAPGKERELVAAITSGGSTYYADSVKGRFTISRDNAKNTVYLQMNSLKPEDTAVYDCAAVPRYRRWKYDYWGQGTQVTVSS | high polyreactivity
